{
  "source": "the supplement of paper PMC11246515",
  "assay": "total protein half-life in vivo (active degradation + dilution); higher = more stable protein",
  "key": {"[1]": {"settings": "E. coli NCM3722 delta-clpP delta-lon delta-hslV, growth: N-lim chemostat, doubling time 6 h"}, "[2]": {"settings": "E. coli NCM3722 delta-clpP, growth: N-lim chemostat, doubling time 6 h"}, "[3]": {"settings": "E. coli NCM3722 delta-hslV, growth: N-lim chemostat, doubling time 6 h"}, "[4]": {"settings": "wild type E. coli NCM3722, growth: C-lim chemostat, doubling time 6 h"}, "[5]": {"settings": "wild type E. coli NCM3722, growth: N-lim chemostat, doubling time 6 h"}, "[6]": {"settings": "wild type E. coli NCM3722, growth: N-lim chemostat, doubling time 12 h"}, "[7]": {"settings": "wild type E. coli NCM3722, growth: P-lim chemostat, doubling time 6 h"}, "[8]": {"settings": "wild type E. coli NCM3722, growth: P-lim chemostat, doubling time 12 h"}, "[9]": {"settings": "E. coli NCM3722 delta-lon, growth: N-lim chemostat, doubling time 6 h"}, "[10]": {"settings": "E. coli NCM3722 delta-smpB, growth: N-lim chemostat, doubling time 6 h"}, "[11]": {"settings": "wild type E. coli NCM3722, growth: C-lim chemostat, doubling time 3 h"}, "[12]": {"settings": "wild type E. coli NCM3722, growth: C-lim chemostat, doubling time 12 h"}},
  "note": "± gives the standard deviation of the averaged measurements.",
  "data": [
    {"sequence": "MLTLLHLLSAVALLVWGTHIVRTGVMRVFGARLRTVLSRSVEKKPLAFCAGIGVTALVQSSNATTMLVTSFVAQDLVALAPALVIVLGADVGTALMARILTFDLSWLSPLLIFIGVIFFLGRKQSRAGQLGRVGIGLGLILLALELIVQAVTPITQANGVQVIFASLTGDILLDALIGAMFAIISYSSLAAVLLTATLTAAGIISFPVALCLVIGANLGSGLLAMLNNSAANAAARRVALGSLLFKLVGSLIILPFVHLLAETMGKLSLPKAELVIYFHVFYNLVRCLVMLPFVDPMARFCKTIIRDEPELDTQLRPKHLDVSALDTPTLALANAARETLRIGDAMEQMMEGLNKVMHGEPRQEKELRKLADDINVLYTAIKLYLARMPKEELAEEESRRWAEIIEMSLNLEQASDIVERMGSEIADKSLAARRAFSLDGLKELDALYEQLLSNLKLAMSVFFSGDVTSARRLRRSKHRFRILNRRYSHAHVDRLHQQNVQSIETSSLHLGLLGDMQRLNSLFCSVAYSVLEQPDEDEGRDEY [P0AF43]", "values": [
      {"measurement": "total protein half-life in vivo", "setting": "[1]", "result": 6.4, "unit": "h"},
      {"measurement": "total protein half-life in vivo", "setting": "[2]", "result": "6.35 ± 0.26", "unit": "h"},
      {"measurement": "total protein half-life in vivo", "setting": "[3]", "result": "5.73 ± 0.74", "unit": "h"},
      {"measurement": "total protein half-life in vivo", "setting": "[4]", "result": "5.38 ± 0.19", "unit": "h"},
      {"measurement": "total protein half-life in vivo", "setting": "[5]", "result": 6.48, "unit": "h"},
      {"measurement": "total protein half-life in vivo", "setting": "[6]", "result": "10.5 ± 4.5", "unit": "h"},
      {"measurement": "total protein half-life in vivo", "setting": "[7]", "result": "6.1173 ± 0.0061", "unit": "h"},
      {"measurement": "total protein half-life in vivo", "setting": "[8]", "result": "11.55 ± 0.033", "unit": "h"}
    ]},
    {"sequence": "MLTRLREIVEKVASAPRLNEALNILVTDICLAMDTEVCSVYLADHDRRCYYLMATRGLKKPRGRTVTLAFDEGIVGLVGRLAEPINLADAQKHPSFKYIPSVKEERFRAFLGVPIIQRRQLLGVLVVQQRELRQYDESEESFLVTLATQMAAILSQSQLTALFGQYRQTRIRALPAAPGVAIAEGWQDATLPLMEQVYQASTLDPALERERLTGALEEAANEFRRYSKRFAAGAQKETAAIFDLYSHLLSDTRLRRELFAEVDKGSVAEWAVKTVIEKFAEQFAALSDNYLKERAGDLRALGQRLLFHLDDANQGPNAWPERFILVADELSATTLAELPQDRLVGVVVRDGAANSHAAIMVRALGIPTVMGADIQPSVLHRRTLIVDGYRGELLVDPEPVLLQEYQRLISEEIELSRLAEDDVNLPAQLKSGERIKVMLNAGLSPEHEEKLGSRIDGIGLYRTEIPFMLQSGFPSEEEQVAQYQGMLQMFNDKPVTLRTLDVGADKQLPYMPISEENPCLGWRGIRITLDQPEIFLIQVRAMLRANAATGNLNILLPMVTSLDEVDEARRLIERAGREVEEMIGYEIPKPRIGIMLEVPSMVFMLPHLAKRVDFISVGTNDLTQYILAVDRNNTRVANIYDSLHPAMLRALAMIAREAEIHGIDLRLCGEMAGDPMCVAILIGLGYRHLSMNGRSVARAKYLLRRIDYAEAENLAQRSLEAQLATEVRHQVAAFMERRGMGGLIRGGL", "values": [
      {"measurement": "total protein half-life in vivo", "setting": "[1]", "result": "5.82 ± 0.99", "unit": "h"},
      {"measurement": "total protein half-life in vivo", "setting": "[2]", "result": "5.146 ± 0.0092", "unit": "h"},
      {"measurement": "total protein half-life in vivo", "setting": "[3]", "result": "4.39 ± 0.15", "unit": "h"},
      {"measurement": "total protein half-life in vivo", "setting": "[9]", "result": "4.53 ± 0.17", "unit": "h"},
      {"measurement": "total protein half-life in vivo", "setting": "[10]", "result": "4.44 ± 0.084", "unit": "h"},
      {"measurement": "total protein half-life in vivo", "setting": "[11]", "result": "3.06 ± 0.15", "unit": "h"},
      {"measurement": "total protein half-life in vivo", "setting": "[4]", "result": "5.78 ± 0.21", "unit": "h"},
      {"measurement": "total protein half-life in vivo", "setting": "[12]", "result": "10.7 ± 0.17", "unit": "h"},
      {"measurement": "total protein half-life in vivo", "setting": "[5]", "result": "4.37 ± 0.11", "unit": "h"},
      {"measurement": "total protein half-life in vivo", "setting": "[6]", "result": "7.03 ± 0.12", "unit": "h"},
      {"measurement": "total protein half-life in vivo", "setting": "[7]", "result": "6.54 ± 0.36", "unit": "h"},
      {"measurement": "total protein half-life in vivo", "setting": "[8]", "result": "11.5 ± 1.8", "unit": "h"}
    ]},
    {"sequence": "MLTSFKLHSLKPYTLKSSMILEIITYILCFFSMIIAFVDNTFSIKIYNITAIVCLLSLILRGRQENYNIKNLILPLSIFLIGLLDLIWYSAFKVDNSPFRATYHSYLNTAKIFIFGSFIVFLTLTSQLKSKKESVLYTLYSLSFLIAGYAMYINSIHENDRISFGVGTATGAAYSTMLIGIVSGVAILYTKKNHPFLFLLNSCAVLYVLALTQTRATLLLFPIICVAALIAYYNKSPKKFTSSIVLLIAILASIVIIFNKPIQNRYNEALNDLNSYTNANSVTSLGARLAMYEIGLNIFIKSPFSFRSAESRAESMNLLVAEHNRLRGALEFSNVHLHNEIIEAGSLKGLMGIFSTLFLYFSLFYIAYKKRALGLLILTLGIVGIGLSDVIIWARSIPIIIISAIVLLLVINNRNNTIN", "values": [
      {"measurement": "total protein half-life in vivo", "setting": "[10]", "result": "5.65 ± 0.45", "unit": "h"},
      {"measurement": "total protein half-life in vivo", "setting": "[11]", "result": 3.42, "unit": "h"}
    ]},
    {"sequence": "MLTVIAEIRTRPGQHHRQAVLDQFAKIVPTVLKEEGCHGYAPMVDCAAGVSFQSMAPDSIVMIEQWESIAHLEAHLQTPHMKAYSEAVKGDVLEMNIRILQPGI [P0ADU2]", "values": [
      {"measurement": "total protein half-life in vivo", "setting": "[1]", "result": "5.001 ± 0.017", "unit": "h"},
      {"measurement": "total protein half-life in vivo", "setting": "[3]", "result": "4.57 ± 0.38", "unit": "h"},
      {"measurement": "total protein half-life in vivo", "setting": "[9]", "result": "5.31 ± 0.5", "unit": "h"},
      {"measurement": "total protein half-life in vivo", "setting": "[10]", "result": "4.72 ± 0.06", "unit": "h"},
      {"measurement": "total protein half-life in vivo", "setting": "[11]", "result": "3.14 ± 0.34", "unit": "h"},
      {"measurement": "total protein half-life in vivo", "setting": "[4]", "result": "5.35 ± 0.099", "unit": "h"},
      {"measurement": "total protein half-life in vivo", "setting": "[12]", "result": "10.4 ± 0.39", "unit": "h"},
      {"measurement": "total protein half-life in vivo", "setting": "[5]", "result": "4.36 ± 0.28", "unit": "h"},
      {"measurement": "total protein half-life in vivo", "setting": "[6]", "result": "7 ± 0.33", "unit": "h"},
      {"measurement": "total protein half-life in vivo", "setting": "[7]", "result": "5.84 ± 0.12", "unit": "h"},
      {"measurement": "total protein half-life in vivo", "setting": "[8]", "result": "11.6 ± 0.82", "unit": "h"}
    ]},
    {"sequence": "MLVSCAMRLHSGVFPDYAEKLPQEEKMEKEDSFPQRVWQIVAAIPEGYVTTYGDVAKLAGSPRAARQVGGVLKRLPEGSTLPWHRVVNRHGTISLTGPDLQRQRQALLAEGVMVSGSGQIDLQRYRWNY [P0AFP2]", "values": [
      {"measurement": "total protein half-life in vivo", "setting": "[1]", "result": "5.49 ± 0.093", "unit": "h"},
      {"measurement": "total protein half-life in vivo", "setting": "[4]", "result": 4.04, "unit": "h"},
      {"measurement": "total protein half-life in vivo", "setting": "[12]", "result": 3.96, "unit": "h"}
    ]}
  ]
}
